The results in this text go back to publication PMC6607443, “Systematic identification of recognition motifs for the hub protein LC8” (Life Science Alliance, 2019).

The labels stand for the following.
B1: bassoon (BSN) peptide, modified version with the TQT motif near the C-terminus (peptide)
peptide: PRATAEFSTQTPSP
notes: also called BSN^II; modified BSN peptide

The target of this experiment is dynein light chain LC8 (UniProt P63167 1-89). Kind of experiment: ITC; peptide (500 μM) injected into 25 μM LC8 in the cell; 25°C; 50 mM sodium phosphate, 50 mM NaCl, 1 mM sodium azide, 5 mM β-mercaptoethanol, pH 7.5; single-site model; averages of two to three experiments. To be noted: both partners purified. (In general: ITC needs no label: the signal is the heat of the interaction.)
Sequence of dynein light chain LC8 (P63167 whole entry): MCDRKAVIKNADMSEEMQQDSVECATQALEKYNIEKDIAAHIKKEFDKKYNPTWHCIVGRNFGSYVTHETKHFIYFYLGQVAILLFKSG
For the molecule DDNHWTRSTQTTRE [MUC4 peptide with N-terminal aspartates (DDNHWTRSTQTTRE)], the stoichiometry N (in general, a count of units in the complex or per binding partner) stood at 1 peptide per LC8 chain.

Turning to HPETQDSSTQTDTS [SPAG5 peptide], the “stoichiometry N” value worked out at 1 peptide per LC8 chain.

For the molecule SSSTRSIDTQTPSV [GLCCI1 peptide], the “stoichiometry N” value worked out at 1 peptide per LC8 chain.

As for B1, the “stoichiometry N” value was 1 peptide per LC8 chain.

On to SQNHWTRSTQTTRE [MUC4 peptide (SQNHWTRSTQTTRE)], for which the “stoichiometry N” value was 1 peptide per LC8 chain.

In the case of NQSFTTASTQTPPQ [CAPRIN2 peptide], the “stoichiometry N” value amounted to 1 peptide per LC8 chain.

Regarding AKESCNMETQTSST [OFD1 peptide], the “stoichiometry N” value came to 1 peptide per LC8 chain.

In the case of SKTQQTFGSQTECT [TOGARAM1 peptide], the Kd (as a rule, a measure of binding affinity in units of concentration) was more than 25 µM.

On to YSRKSRCVSVQTDPT [SON peptide], for which the “stoichiometry N” value was found to be 1 peptide per LC8 chain.

As to ARAGRSVSTQTGSM [CIZ1 peptide], the “stoichiometry N” value stood at 1 peptide per LC8 chain.

In the case of YGCTRHQSVQTEDG [MAST1 peptide], the “stoichiometry N” value came to 1 peptide per LC8 chain.

QDFMKHLDKKTQTPKL [CCL7 peptide]: the “stoichiometry N” value stood at 1 peptide per LC8 chain.

For EKELRHIGTQISSD [ICE1 peptide], the “stoichiometry N” value is 1 peptide per LC8 chain.

Regarding APMSCDKSTQTPSP [BCL2L11 peptide], the dissociation constant Kd was determined as 0.16 µM and the “stoichiometry N” value came to 1 peptide per LC8 chain.

Molecule SPSPTGLPTQTPGF [ARAP3 peptide] came in with a Kd of more than 25 µM.

GQGAALTTATQTTHLE [GP1BA peptide]: the Kd is more than 25 µM.

With DDHSREKGTQTSGD [SLC9A2 peptide], the “stoichiometry N” value was 1 peptide per LC8 chain.

Consider DDSGGNATTQTTSD [ROR1 peptide], for which the Kd was more than 25 µM.

PAPPSYSDKGVQTPSK [ZFPM1 peptide]: the “stoichiometry N” value amounted to 1 peptide per LC8 chain.

Take YDSMDHLDKQTQTPKT [CCL2 peptide]: the “stoichiometry N” value came to 1 peptide per LC8 chain.

In the case of PVLTSATGTQTSPA [MUC3A peptide], the “stoichiometry N” value worked out at 1 peptide per LC8 chain.
